Assay results from the RNAGym collection of RNA variant scans (doi:10.1073/pnas.2313332121).

B1: TPR t1 (parent)
chain: GACCAAUCUGCCCUCAGAGCUCGAGAACAUCUUCGGAUGCAGAGGAGGCAGGCUUCGGUGGCGCGAUAGCGCCAACGUCCUCAACCUCCAAUGCAUCCCACCACAUGAUGAUGCCUGAAGAGCCUUGGUUUUUUG

Variants of: B1
Experiment: polymerase ribozyme fitness, log enrichment relative to wild type (log ratio); higher = more active; in vitro selection for triplet polymerase activity
Summary of the method: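 Mutant libraries for each subunit of a heterodimeric triplet polymerase ribozyme were made by PCR and then transcribed. Each library underwent one round of in vitro selection in triplicate: annealing with a biotinylated primer, the partner subunit and triplets, frozen incubation at −7 °C, gel excision of extended constructs, streptavidin-bead capture and RT-PCR. Input and output libraries were Illumina-sequenced, and only genotypes with ≥10 input reads and ≥1 read per output were kept. Fitness is the logarithm, base 2, of genotype enrichment over wild-type enrichment, computed from inverse-variance-weighted replicate averages.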

Row | Variant | polymerase ribozyme fitness (log ratio)
1 | U54C C86G U112G G120C | -1.16
2 | C53U A121U | 0.893
3 | U55A C79G | -0.669
4 | C53U C64U | -0.276
5 | U55A G57A G61A G77A U87A A100C | -1.72
6 | C56A C80A U116G | -4.93
7 | U54C A84G C88A C98U | -1.69
8 | C53U G63C C98G | -6.12
9 | U54G A103U | -4.6
10 | C56A C70G | -3.6
11 | C56A C70U | -0.609
12 | C56A A119U | -1.36
13 | C53U G63C | -2.11
14 | U54A C76U | -0.995
15 | U55G C115U | -0.797
16 | C53U U59A A84U U126C | -2.21
17 | C53U G61U U78C | 0.151
18 | C53U G77U U132A | -0.78
19 | U55G C56U A95U | -1.91
20 | C56A C89U | -1
21 | U54A A119G | 0.648
22 | C53U C73G G113C | -4.51
23 | C53U C62U A111U A118U G135A | -3.23
24 | C56A C88U C101U U106G C123A | -1.58

Row | Variant | polymerase ribozyme fitness (log ratio)
25 | U54A C70U C94A | -1.72
26 | U55G G63A U81C | -3.9
27 | C56A C88U C124A U133C | 2.43
28 | U54C C56A C64A C85G G117A | -7.73
29 | U54C C115U G127C | -1.97
30 | U55G G93A G117U | -3.04
31 | C53U U55A | -0.075
32 | C53U U67G C124G | -7.17
33 | C53U C99G A119G | -7.41
34 | U54G G61A C80A G120U | -5.8
35 | U54C C76U | -0.00868
36 | U54G G63A G69U U78G C102A U106G G120C | -6.62
37 | C53U G69A A84C | -3.13
38 | C53U C73G | -2.05
39 | U54C U87A A95U U130A | -2.56
40 | C56A C89U C102U G113U | -6.7
41 | C53U C70G | -4.36
42 | C53U C70A | -1.49
43 | C56A C62A C79A | -6.19
44 | C56A C99U | -2.82
45 | C53U C102U | -2.44
46 | C53U | -0.1
47 | C53U G60C U87A | -1.09
48 | C53U U78A A103U A121C U132C | -4.38

Row | Variant | polymerase ribozyme fitness (log ratio)
49 | U55G G61U C123A | 1.22
50 | U55C A90U | -1.58
51 | C53U G71A C101G U130A | -3.93
52 | C56A C76A G120U | -1.15
53 | U55C U130G | -1.43
54 | U54G C56G C72A G93A | -4.53
55 | C53U A90G A95G | 0.749
56 | U54G C80A C88A | -4.43
57 | U54G C101U U106A U116G | -3.87
58 | C56A C80G C86U | -3.12
59 | C53U A91U C123A | -1.7
60 | U55G G58C C79A | -3.4
61 | U54A G69U G128C U130A U132A | -2.67
62 | C53U C80A | -4.94
63 | U55C C70U C88G | -0.976
64 | C56A C70G C124A G127A | -2.78
65 | C53U U112A | 0.78
66 | U55A A111U | -2.8
67 | C53U C72U G77U C82G A111C | -1.23
68 | C53U C94A U129C | -1.99
69 | U55G A66U | -0.936
70 | U55C C70U C85A | -2.03
71 | U55C C56A A90G C94G G110C U116A A121G | -6.03
72 | U54A C89U U96C G127A | -1.97

Row | Variant | polymerase ribozyme fitness (log ratio)
73 | C53U G71A C73A G77C C80U | -6.09
74 | C53U G60U A121C | 1.26
75 | U54A G57C A90G C114U U132A | -2.18
76 | U55G C70G A100C | -3.29
77 | C53U U59G | -0.253
78 | C56A A100G C102U U112C G127C | -2.2
79 | U55C C56A A84C A111G U129A | -2.42
80 | C53G U126A | -2.29
81 | U54A C86U C124U | 1.14
82 | U55A G63C C72U G77C C104A | -5.29
83 | U55G U132A | -0.283
84 | U55G C62A C88G | -2.24
85 | U54C G60U G69U U133G | -2.67
86 | C53U C56U | -0.207
87 | U54C U78G G117U | -3.85
88 | C53U G60U | 0.63
89 | U54A C85U C97U | -1.5
90 | U55C C72G A83G U126A | -2.13
91 | U54G G57C | -1.44
92 | C56A A66G A75G | -0.927
93 | U54G C114A | -1.69
94 | U55G G61U C114U | -1.66
95 | U55C C82A C124G | 1.37
96 | U55A G71U C102U A121G U132A | 0.31

Row | Variant | polymerase ribozyme fitness (log ratio)
97 | U55A C79U C97U C115U G127C | -3.52
98 | C53U C72U C79A C85U C88U | -2.53
99 | U55G G60U A103U | -5.31
100 | C53U G71A G93A | -1.43
101 | C56A C62U C114U | -2.3
102 | U55G C56A | -0.837
103 | U55G C56G | -1.53
104 | C53U U96C | -0.173
105 | U54A C73U A121U U130A | 2.07
106 | C56A C64G | -5.92
107 | U54G C62G | -5.55
108 | U54A C94A | -1.16
109 | U54C C115A G122A C123A U131A | -1.4
110 | U54A A68G G71U C80G C102G G113U U125A | -6.12
111 | U54A C88G C89U C115A | -1.42
112 | U55G C89G | -1.51
113 | C53U A91C U92A G122A | -4.02
114 | U55A G77U C115U U125A | -1.02
115 | U55C C72A U78C C79U A121G | 2.46
116 | C56A A83G G135U | -2.3
117 | C53U C104A | -1.8
118 | U54C C56U C82A U96A | -1.95
119 | C53U G61U C114U | -2.37
120 | C53U C85U G127C | -2.36

Row | Variant | polymerase ribozyme fitness (log ratio)
121 | U54C U116A U131C | -3.16
122 | U55G G69A C73A | -3.04
123 | U54G G71U A74U G113C A121U | -7.2
124 | U54C C72U C89U A111C | -0.0742
125 | C56A A83U C85U C99U | -3.58
126 | U55A C73U C86G C99U | -4.02
127 | C53U A90U | -0.929
128 | C56A C79A | -1.77
129 | U54A C115U U131C G135C | -1.35
130 | U54C G61C | -2.14
131 | C56A A83U | -1.62
132 | U54G A95C U133A | -1.48
133 | U55G C62G C123U | -0.0735
134 | U55A U87A G122A | -0.825
135 | C53U C86G | -0.977
136 | C53U C94A A121C | 0.891
137 | C53U G60U C101U A103C | -5.14
138 | C53U G69U C73U | 0.0642
139 | U54C U106A C124U | 2.23
140 | U54A C72U C102G U112G | -5.88
141 | C53U G71U G127A | -1.14
142 | C56A A90U | -1.48
143 | U55A A83G | -0.95
144 | C56A C72U G93U | -1.63

Row | Variant | polymerase ribozyme fitness (log ratio)
145 | U54A C56G G61A | -0.683
146 | U54G G107U | -5.37
147 | U55C G60A C94A G113U | -4.46
148 | C53U C98U | -1.46
149 | C53U G57A G60C G61A C115U | -4.03
150 | U54A G71U U126G | -2.06
151 | U54G C85U U116G | -3.02
152 | U54G U55A G93C C115G | -5.45
153 | C53U G93A | -0.887
154 | C53U U54G C56U U129C U133G | -0.985
155 | C56A C76A C88A C115U | -3.94
156 | C53U C70U A74G G113C | -4.41
157 | U54A U133G | -0.274
158 | U54C U109A G120C | -5.52
159 | C56A C101G | -1.76
160 | C56A C72U G110A G122U | -2.87
161 | U55A C85U | -1.1
162 | U55C G58A G122A | -0.971
163 | C56A C80U A111U | -4
164 | C56A C72G | -0.848
165 | U54C G58A G69C A84U | -1.08
166 | C53U U59C C89A C104U G117C G128U | -6.6
167 | C53U A74G C98U | -1.16
